Assay [1] has as its target T1, WOX5-mV(N) BRAVO-mV(C) heterodimer (BiFC donor) (Arabidopsis thaliana, UniProt Q8H1D2 1-182; Q6R053 1-323).
T1 construct: WUSCHEL-RELATED HOMEOBOX 5 (WOX5) of Arabidopsis thaliana; the CDS, described in Burkart et al, 2022; BRAVO, R2R3-MYB transcription factor of Arabidopsis thaliana; the CDS amplified from cDNA; also called WOX5-mV(N) and BRAVO-mV(C); source: N. benthamiana leaf cells, transiently co-expressed, in cells
T1 sequence (looked up) 1: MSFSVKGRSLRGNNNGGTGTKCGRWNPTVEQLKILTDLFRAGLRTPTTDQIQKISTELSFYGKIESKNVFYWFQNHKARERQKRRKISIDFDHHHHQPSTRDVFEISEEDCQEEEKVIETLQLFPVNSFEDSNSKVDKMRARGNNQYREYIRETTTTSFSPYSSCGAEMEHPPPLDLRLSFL
T1 sequence (looked up) 2: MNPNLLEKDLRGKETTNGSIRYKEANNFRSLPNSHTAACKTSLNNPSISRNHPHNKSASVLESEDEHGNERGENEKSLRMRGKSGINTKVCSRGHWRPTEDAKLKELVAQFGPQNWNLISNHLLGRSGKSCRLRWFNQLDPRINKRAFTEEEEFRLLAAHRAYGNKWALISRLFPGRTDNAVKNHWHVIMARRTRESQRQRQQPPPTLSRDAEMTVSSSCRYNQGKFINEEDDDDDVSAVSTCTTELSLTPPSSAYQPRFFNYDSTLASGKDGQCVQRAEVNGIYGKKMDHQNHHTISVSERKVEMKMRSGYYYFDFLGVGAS
Put plainly: split reporter (BiFC, NanoBiT) + FRET or BRET; BiFC-FRET-FLIM in nuclei of N. benthamiana epidermal leaf cells; mVenus donor split into mV(N) and mV(C) on two proteins, third protein with mCherry as acceptor; 'binding' [%]; binding cutoff 10%. As to conditions: partners not purified. (BRET reads energy transfer from a luciferase to a nearby fluorophore.)

Assay [2] concerns the target BES1D-mVenus (Arabidopsis thaliana) (UniProt Q9LN63). Put plainly: FRET or BRET; FRET-FLIM in nuclei of transiently expressing N. benthamiana epidermal leaf cells; mVenus fusion as donor, mCherry fusion as acceptor; 'binding' [%] is the amplitude of the FRET component (number of donor molecules undergoing FRET); binding cutoff 10%; a binding not significantly different from the negative control (mCherry-NLS) is regarded as no interaction.

The next assay deals with T2, TPL-mVenus (Arabidopsis thaliana, UniProt Q94AI7 1-1131).
T2 construct: TOPLESS (TPL) of Arabidopsis thaliana; the CDS amplified from cDNA; FRET donor; source: N. benthamiana abaxial epidermal leaf cells, transiently expressed (β-estradiol inducible), in cells
T2 sequence (looked up): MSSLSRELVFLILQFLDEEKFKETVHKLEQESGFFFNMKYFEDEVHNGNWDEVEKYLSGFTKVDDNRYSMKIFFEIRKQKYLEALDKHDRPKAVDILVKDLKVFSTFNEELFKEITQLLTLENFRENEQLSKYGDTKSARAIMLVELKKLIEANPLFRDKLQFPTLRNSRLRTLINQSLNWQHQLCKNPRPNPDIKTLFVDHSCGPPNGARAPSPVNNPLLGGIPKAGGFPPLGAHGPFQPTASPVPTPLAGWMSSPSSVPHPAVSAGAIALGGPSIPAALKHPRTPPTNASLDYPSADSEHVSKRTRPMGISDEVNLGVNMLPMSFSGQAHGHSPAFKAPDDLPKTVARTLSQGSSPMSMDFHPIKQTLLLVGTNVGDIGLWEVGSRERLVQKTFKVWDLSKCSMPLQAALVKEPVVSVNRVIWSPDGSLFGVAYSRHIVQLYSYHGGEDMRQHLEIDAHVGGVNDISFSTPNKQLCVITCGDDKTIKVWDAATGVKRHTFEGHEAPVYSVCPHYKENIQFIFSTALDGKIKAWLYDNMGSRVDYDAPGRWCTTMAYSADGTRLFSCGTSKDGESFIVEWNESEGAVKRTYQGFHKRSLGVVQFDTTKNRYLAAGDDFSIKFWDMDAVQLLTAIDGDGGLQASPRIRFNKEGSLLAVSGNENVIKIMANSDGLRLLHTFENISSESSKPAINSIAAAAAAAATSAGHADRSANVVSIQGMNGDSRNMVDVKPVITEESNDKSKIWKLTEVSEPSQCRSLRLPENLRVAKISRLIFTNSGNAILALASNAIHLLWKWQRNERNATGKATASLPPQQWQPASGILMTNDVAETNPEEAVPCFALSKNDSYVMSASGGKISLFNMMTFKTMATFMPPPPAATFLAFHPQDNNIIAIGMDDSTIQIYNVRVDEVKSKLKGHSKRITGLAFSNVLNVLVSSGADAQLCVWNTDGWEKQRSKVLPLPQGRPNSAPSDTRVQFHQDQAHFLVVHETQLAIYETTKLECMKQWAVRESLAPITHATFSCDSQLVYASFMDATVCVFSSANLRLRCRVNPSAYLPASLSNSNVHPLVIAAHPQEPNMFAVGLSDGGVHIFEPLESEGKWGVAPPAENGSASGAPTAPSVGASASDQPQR
Described as above. Conditions: partners not purified.

BES1D-mVenus (Arabidopsis thaliana), sequence (Q9LN63 whole entry, the tested form may be a part): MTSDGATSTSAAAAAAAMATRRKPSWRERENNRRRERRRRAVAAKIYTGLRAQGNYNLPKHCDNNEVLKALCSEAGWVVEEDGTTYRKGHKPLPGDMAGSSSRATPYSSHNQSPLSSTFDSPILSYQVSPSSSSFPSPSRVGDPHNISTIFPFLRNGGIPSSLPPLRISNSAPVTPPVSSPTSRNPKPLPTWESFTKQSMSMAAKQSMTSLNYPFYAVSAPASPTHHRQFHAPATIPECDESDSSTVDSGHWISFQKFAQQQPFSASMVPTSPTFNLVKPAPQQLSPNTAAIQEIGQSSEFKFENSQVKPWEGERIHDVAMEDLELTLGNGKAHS

B1: PLT3-mCherry (PLETHORA 3) (natural protein, Arabidopsis thaliana, UniProt Q52QU2 1-581, looked up)
chain: MMAPMTNWLTFSLSPMEMLRSSDQSQFVSYDASSAASSSPYLLDNFYGWSNQKPQEFFKEEAQLAAAASMADSTILTTFVDPQSHHSQNHIPKLEDFLGDSSSIVRYSDNSQTDTQDSSLTQIYDPRHHHNQTGFYSDHHDFKTMAGFQSAFSTNSGSEVDDSASIGRTHLAGDYLGHVVESSGPELGFHGGSTGALSLGVNVNNNTNHRNDNDNHYRGNNNGERINNNNNNDNEKTDSEKEKAVVAVETSDCSNKKIADTFGQRTSIYRGVTRHRWTGRYEAHLWDNSCRREGQARKGRQGGYDKEDKAARAYDLAALKYWNATATTNFPITNYSKEVEEMKHMTKQEFIASLRRKSSGFSRGASIYRGVTRHHQQGRWQARIGRVAGNKDLYLGTFATEEEAAEAYDIAAIKFRGINAVTNFEMNRYDVEAIMKSALPIGGAAKRLKLSLEAAASSEQKPILGHHQLHHFQQQQQQQQLQLQSSPNHSSINFALCPNSAVQSQQIIPCGIPFEAAALYHHHQQQQQHQQQQQQQNFFQHFPANAASDSTGSNNNSNVQGTMGLMAPNPAEFFLWPNQSY
notes: PLETHORA 3 (PLT3), APETALA2-type transcription factor of Arabidopsis thaliana; CDS and construct described in Burkart et al, 2022; FRET acceptor; construct XVE:PLT3-mCherry of Burkart et al, 2022; also called full-length PLT3; source: N. benthamiana abaxial epidermal leaf cells, transiently expressed (β-estradiol inducible), in cells
For the molecule B1, the “binding (FRET-FLIM, share of donor molecules undergoing FRET)” value was found to be 31.5 ± 8.5% in assay [1], 16.9% in assay [2] and 13.5 ± 4.3% with TPL-mVenus.

The values above are taken from article PMC12069552, “Root stem cell homeostasis in Arabidopsis involves cell-type specific transcription factor complexes” (EMBO Reports, 2025).
